Measured values published in patent US10815297B2, “Antagonists of IL17C for the treatment of inflammatory disorders” (MorphoSys AG, priority 2011, dated 2020).

Experiments:
[1] = test system: mouse CIA model (DBA1/J mice); test: Mouse collagen induced arthritis (CIA) model, therapeutic protocol; type: in vivo; details: 10 mg/kg, 3x week, i.p., day 31 to day 46
Protocol: DBA1/J mice (male, 6-7 weeks old, approx 20 gram) were obtained from Centre d'Elevage Regional Janvier (Laval, France). Mice were kept on a 12 hr light/dark cycle (0700-1900). Temperature was maintained at 22° C., and food and water were provided ad libitum.
One day before the experiment, CII solution (2 mg/mL) was prepared with 0.05 M acetic acid and stored at 4° C. Just before the immunization, equal volumes of adjuvant […] and CII were mixed by a homogenizer in a pre-cooled glass bottle in an ice water bath. Extra adjuvant and prolonged homogenization may be required if an emulsion is not formed. 0.1 mL of the emulsion was injected intradermally at the base of the tail of each mouse on day 1, a second booster intradermal injection (CII solution at 2 mg/mL in […] 0.1 mLemulsion) was performed on day 21. This immunization method was modified from published methods (Brand et al, 2007, Collagen-induced arthritis. Nature Protocols; vol 2 (5): 1269-1275; Lin et al., 2007, Anti-rheumatic activities of histone deacetylase (HDAC) inhibitors in vivo in collagen-induced arthritis in rodents. Br J Pharmacol. April; 150 (7):829-31).
The therapeutic effects of the antibodies were tested in the mouse CIA model. Mice were randomly divided into equal groups and each group contained 10 mice. All mice were immunized on day 1 and boosted on day 21. Therapeutic dosing lasted from day 31 to day 46. The negative control group was treated with vehicle (PBS) and the positive control group with Enbrel (10 mg/kg, 3× week, i.p.). An antibody of interest was tested at 10 mg/kg, i.p. 3 times per week.
Anti-IL17C antibodies were administered i.p. three times a week at 10 mg/kg. […]
Arthritis was scored according to the method of Khachigian 2006 (Collagen antibody-induced arthritis. (2006) Nature Protocols 1, 2512-6), Lin et al 2007 (supra); Nishida et al. 2004 (Histone deacetylase inhibitor suppression of autoantibody-mediated arthritis in mice via regulation of p16INK4a and p21(WAF1/Cip1) expression. Arthritis Rheum. 10: 3365-76); and Brand et al. 2007 (supra). […]

[2] = test system: BALB/c female mice, LPS-induced acute lung neutrophilia; test: Intranasal instillation of LPS, mouse model of acute lung neutrophilia; type: in vivo; details: single treatment 5 mg/kg i.p. 24 hours before LPS instillation; BAL 24 hours after LPS
Protocol: Two independent studies were conducted with one negative mAb and two positive mAbs in the intranasal instillation of Lipopolysaccharide (LPS) mouse model of acute lung neutrophilia, a model which mimics some relevant aspects of COPD (Chronic Obstructive Pulmonary Disease). The effects were measured by Broncho Alveolar Lavage (BAL) inflammatory cell counting.
Several groups of mice were treated with different antibodies and Dexamethasone and compared to the mice subjected to LPS only.
BALB/c female mice from Harlan (France) were used in the study. Mice weight was around 20 g.
Mice were anesthetized by isoflurane inhalation. During the breathing, LPS was instilled intranasally. After 24 h, mice were anesthetized intra-peritoneally (IP) and Broncho Alveolar Lavage procedure was performed. Mice were anesthetized by injection of anaesthetic solution of 0.1 mL per 10 g of the mouse weight. The anaesthetic solution was composed of 18 ml 0.9% NaCl, 0.5 mL xylazine (5 mg/Kg) and 1.5 mL ketamine (75 mg/Kg).
The trachea was exposed through midline incision and canulated (with a mice catheter). BAL was performed twice using 1 mL of sterile PBS buffer. […] The cells were counted using a cell counter (Vet abc, France). […]
For all groups, BAL was performed 24 hours after LPS administration and cell counts were measured.
The results were analyzed using Student t-test. […]

B1: MOR12743: anti-mouse IL17C HuCAL antibody; CDRs SEQ ID NO: 31-36, VL 37, VH 38; human/mouse chimeric IgG2a (antibody, V domains shown)
VH: QVQLVQSGAEVKKPGASVKVSCKASGYTFTSNFIHWVRQAPGQGLEWMGWISPYNGDTNYAQKFQGRVTMTRDTSISTAYMELSRLRSEDTAVYYCARESVYYGSDYGYNGMDIWGQGTLVTVSS
VL: DIELTQPPSVSVSPGQTASITCSGDNLGEEYVSWYQQKPGQAPVLVIYDDTKRPSGIPERFSGSNSGNTATLTISGTQAEDEADYYCASWDLWSVEVFGGGTKLTVLGQ
modifications: mouse IgG2a constant regions; VH; VL
[1]
  inhibition of inflammation / disease progression (clinical score): significant inhibition
[2]
  inhibition of the recruitment of inflammatory cells into the BALF: inhibited significantly
